# Reference: patent US20220275059A1 (HARBOUR ANTIBODIES, published 2022)
# B1: 2.6h11 (antibody, V domains shown)
# VH: EVQLVESGGGLVQPGRSLRLSCTASGFTFGDYVMSWFRQAPGKGLEWVGFIRSKAHGGTTEYAASVNGRFSISRDDSKTIAYLQMNSLKSEDTAVYYCTWLRNDYYYGMDVWGLGTTVTVSS
# VL: DIMMTQSPLSLPVTPGEPASISCRSSQRLLHSNGYSYVDWYLQKPGQSPQLLIYLGSDRASGVPDRFSGSGSGTDFTLKISRVEAEDVGVYYCMQTLQTPWTFGQGTKVEIKR
# Biological target: peptide 24.end
# Assay: ELISA on coated peptide 24.end, A450 [B]
binder,measurement,value
B1,binding result,no binding
